One molecule from US20190225675A1 (TUFTS UNIVERSITY, published 2019) can be followed below.

The target of test [1] is Clostridium difficile toxin B (TcdB) (Clostridium difficile, UniProt P18177 2-2366).
Test [2] addresses T1, Clostridium difficile toxin A (TcdA) (Clostridium difficile, UniProt P16154 1-2710).
T1 construct: mature
The experiment in a line: ELISA on plates coated with TcdA, HRP-conjugated detection antibody, A450. (In general: In an ELISA, binding on a coated surface is turned into a signal by an enzyme label.)

Clostridium difficile toxin B (TcdB), sequence (P18177 2-2366): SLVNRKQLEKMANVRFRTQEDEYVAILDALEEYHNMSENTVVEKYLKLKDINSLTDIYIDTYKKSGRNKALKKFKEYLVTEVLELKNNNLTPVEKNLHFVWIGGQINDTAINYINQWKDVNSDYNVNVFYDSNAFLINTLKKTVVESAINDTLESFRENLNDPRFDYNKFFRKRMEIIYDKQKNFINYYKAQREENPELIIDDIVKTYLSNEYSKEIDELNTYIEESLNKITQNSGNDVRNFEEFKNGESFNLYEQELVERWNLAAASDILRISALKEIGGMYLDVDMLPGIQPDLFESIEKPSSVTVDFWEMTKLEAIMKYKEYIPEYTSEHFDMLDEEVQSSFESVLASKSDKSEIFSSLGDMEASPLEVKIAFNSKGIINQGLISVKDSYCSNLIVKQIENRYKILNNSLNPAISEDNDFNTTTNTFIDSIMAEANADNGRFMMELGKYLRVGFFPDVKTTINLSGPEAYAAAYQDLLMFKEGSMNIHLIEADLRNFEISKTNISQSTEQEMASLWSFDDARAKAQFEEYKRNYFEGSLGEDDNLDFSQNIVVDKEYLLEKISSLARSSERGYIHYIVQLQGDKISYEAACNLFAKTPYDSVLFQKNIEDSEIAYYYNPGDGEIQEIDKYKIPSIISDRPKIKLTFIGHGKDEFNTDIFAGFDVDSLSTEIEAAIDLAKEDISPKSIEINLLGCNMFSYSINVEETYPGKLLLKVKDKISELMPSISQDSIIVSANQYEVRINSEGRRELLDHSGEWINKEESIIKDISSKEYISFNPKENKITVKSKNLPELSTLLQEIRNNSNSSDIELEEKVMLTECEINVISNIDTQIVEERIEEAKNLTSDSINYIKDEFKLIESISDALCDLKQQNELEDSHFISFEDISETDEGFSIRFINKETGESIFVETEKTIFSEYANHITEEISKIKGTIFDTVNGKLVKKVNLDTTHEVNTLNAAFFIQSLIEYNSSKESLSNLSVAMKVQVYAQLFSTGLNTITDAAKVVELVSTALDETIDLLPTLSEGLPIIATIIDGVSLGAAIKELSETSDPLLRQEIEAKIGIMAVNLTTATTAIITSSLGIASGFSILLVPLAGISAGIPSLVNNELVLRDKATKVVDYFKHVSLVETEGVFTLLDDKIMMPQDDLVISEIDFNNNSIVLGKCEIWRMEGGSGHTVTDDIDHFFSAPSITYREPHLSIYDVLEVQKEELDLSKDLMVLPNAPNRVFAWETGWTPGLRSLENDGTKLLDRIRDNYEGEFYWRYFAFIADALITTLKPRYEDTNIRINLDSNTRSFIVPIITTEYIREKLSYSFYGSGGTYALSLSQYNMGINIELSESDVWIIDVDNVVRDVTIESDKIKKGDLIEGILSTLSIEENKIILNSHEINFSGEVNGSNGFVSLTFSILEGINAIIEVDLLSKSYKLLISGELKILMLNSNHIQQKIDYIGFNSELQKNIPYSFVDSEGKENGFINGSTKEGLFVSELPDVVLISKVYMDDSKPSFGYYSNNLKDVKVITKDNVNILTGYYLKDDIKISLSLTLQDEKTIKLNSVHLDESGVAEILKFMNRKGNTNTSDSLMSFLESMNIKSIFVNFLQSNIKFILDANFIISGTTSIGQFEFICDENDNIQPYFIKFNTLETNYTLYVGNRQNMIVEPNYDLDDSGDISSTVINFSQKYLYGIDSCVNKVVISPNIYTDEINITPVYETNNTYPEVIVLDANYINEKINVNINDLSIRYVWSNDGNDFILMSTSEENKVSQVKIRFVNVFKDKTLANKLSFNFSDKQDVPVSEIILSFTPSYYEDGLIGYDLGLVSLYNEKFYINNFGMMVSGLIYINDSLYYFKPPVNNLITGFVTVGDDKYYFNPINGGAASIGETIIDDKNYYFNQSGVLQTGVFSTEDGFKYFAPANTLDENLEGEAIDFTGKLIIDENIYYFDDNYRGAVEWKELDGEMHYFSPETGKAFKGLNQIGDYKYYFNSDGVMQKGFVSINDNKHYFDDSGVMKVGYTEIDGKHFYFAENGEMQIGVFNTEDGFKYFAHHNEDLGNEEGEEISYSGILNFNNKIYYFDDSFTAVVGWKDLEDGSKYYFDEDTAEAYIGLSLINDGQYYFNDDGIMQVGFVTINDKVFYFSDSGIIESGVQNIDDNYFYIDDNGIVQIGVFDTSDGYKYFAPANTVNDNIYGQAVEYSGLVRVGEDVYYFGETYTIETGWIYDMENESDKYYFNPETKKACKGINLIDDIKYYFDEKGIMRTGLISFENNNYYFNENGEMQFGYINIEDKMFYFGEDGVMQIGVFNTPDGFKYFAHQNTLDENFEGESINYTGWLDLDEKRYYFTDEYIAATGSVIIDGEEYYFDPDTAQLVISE
T1 sequence (P16154 whole entry): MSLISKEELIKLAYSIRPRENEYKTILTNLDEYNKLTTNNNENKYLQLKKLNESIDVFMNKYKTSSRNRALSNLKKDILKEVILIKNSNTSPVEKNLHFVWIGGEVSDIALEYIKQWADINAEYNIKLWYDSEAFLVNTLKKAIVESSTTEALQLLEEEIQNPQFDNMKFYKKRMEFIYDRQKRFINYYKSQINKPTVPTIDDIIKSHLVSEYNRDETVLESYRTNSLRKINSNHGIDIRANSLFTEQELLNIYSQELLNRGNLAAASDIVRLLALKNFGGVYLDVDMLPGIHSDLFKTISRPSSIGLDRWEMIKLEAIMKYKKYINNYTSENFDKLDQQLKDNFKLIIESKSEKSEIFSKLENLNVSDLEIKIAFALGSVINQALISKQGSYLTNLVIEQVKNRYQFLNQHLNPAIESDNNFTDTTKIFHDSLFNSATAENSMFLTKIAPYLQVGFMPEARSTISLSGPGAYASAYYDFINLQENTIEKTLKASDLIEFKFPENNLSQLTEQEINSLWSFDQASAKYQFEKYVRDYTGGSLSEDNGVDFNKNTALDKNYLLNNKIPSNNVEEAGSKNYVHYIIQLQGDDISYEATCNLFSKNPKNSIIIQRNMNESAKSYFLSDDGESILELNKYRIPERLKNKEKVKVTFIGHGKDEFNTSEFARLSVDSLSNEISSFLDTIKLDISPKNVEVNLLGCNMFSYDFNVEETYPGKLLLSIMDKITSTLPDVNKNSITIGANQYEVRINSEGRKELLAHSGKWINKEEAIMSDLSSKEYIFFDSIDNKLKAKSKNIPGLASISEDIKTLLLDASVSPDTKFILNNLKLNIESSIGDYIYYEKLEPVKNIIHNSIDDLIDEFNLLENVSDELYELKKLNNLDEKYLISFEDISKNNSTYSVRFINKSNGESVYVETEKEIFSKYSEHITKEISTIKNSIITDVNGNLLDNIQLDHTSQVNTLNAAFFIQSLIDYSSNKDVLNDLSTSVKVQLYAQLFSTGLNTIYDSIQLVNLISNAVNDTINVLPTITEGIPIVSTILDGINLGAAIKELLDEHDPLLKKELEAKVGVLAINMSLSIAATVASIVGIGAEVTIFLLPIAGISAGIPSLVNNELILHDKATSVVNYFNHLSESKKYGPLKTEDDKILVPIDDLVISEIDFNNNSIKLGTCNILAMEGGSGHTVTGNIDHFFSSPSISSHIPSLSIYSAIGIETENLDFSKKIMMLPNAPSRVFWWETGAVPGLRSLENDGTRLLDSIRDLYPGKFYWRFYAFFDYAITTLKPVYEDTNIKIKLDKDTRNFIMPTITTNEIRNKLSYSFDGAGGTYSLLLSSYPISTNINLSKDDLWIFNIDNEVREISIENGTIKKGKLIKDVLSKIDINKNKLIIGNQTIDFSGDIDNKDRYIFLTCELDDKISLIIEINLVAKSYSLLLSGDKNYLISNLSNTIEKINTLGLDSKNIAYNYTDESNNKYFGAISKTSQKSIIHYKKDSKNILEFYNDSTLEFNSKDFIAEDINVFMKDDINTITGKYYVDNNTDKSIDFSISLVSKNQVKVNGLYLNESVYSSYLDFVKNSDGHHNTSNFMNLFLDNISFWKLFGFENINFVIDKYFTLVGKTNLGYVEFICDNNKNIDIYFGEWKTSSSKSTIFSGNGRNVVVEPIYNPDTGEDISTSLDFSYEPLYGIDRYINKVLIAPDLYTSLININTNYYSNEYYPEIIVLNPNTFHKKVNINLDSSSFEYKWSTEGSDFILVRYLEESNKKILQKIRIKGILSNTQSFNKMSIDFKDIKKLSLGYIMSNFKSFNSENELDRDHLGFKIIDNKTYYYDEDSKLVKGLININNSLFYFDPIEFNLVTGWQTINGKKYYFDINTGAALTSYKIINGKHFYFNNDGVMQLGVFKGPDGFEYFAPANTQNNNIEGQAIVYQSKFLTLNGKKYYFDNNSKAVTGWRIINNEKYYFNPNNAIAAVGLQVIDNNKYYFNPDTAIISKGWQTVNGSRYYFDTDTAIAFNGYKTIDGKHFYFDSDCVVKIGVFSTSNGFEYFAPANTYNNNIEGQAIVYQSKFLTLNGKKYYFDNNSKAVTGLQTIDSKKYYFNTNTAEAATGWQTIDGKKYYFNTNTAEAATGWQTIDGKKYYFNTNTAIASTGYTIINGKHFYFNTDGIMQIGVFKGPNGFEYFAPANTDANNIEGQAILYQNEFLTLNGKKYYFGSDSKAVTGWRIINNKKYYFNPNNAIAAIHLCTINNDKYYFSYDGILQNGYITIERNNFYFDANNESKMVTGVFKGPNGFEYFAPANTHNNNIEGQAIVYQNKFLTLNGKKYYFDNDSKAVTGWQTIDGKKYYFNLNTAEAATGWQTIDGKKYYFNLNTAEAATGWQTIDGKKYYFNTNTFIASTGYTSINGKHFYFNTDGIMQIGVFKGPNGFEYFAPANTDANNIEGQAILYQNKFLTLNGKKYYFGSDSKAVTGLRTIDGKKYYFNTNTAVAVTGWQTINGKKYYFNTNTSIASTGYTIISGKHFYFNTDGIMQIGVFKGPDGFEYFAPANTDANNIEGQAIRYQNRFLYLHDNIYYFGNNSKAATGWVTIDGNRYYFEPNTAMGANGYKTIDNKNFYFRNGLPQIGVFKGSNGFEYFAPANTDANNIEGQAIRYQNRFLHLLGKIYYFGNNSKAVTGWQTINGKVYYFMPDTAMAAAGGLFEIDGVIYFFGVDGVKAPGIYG

B1: VNA-TcdB (toxin B-binding heterodimer, 5D+E3) (other)
chain: QGVQSQLQLVESGGGLVQPGGSLRLSCEASGFTLDYYGIGWFRQPPGKEREAVSYISASARTILYADSVKGRFTISRDNAKNAVYLQMNSLKREDTAVYYCARRRFSASSVNRWLADDYDVWGRGTQVAVSSEPKTPKPQGGGGSGGGGSGGGGSQGVQSQVQLVESGGGLVQTGGSLRLSCASSGSIAGFETVTWSRQAPGKSLQWVASMTKTNNEIYSDSVKGRFIISRDNAKNTVYLQMNSLKPEDTGVYFCKGPELRGQGIQVTVSSEPKTPKPQ
As to B1, the 50% effective concentration (EC50 (read off the curve)) (in general, the concentration at which the effect is half-maximal) in test [1] is roughly 0.3 nM. Besides, in test [2], the binding result is given as “no binding (tested: 125 nM)”.
